Substrate in this data set: O=C1C[C@@H](c2ccc(O)cc2)Oc2cc(O)cc(O)c21
The data set is described as follows: cells, lysate or membranes. The settings on record: NADPH 1.0 mM, 0.1 M sodium phosphate pH 7.0, 27°C (general assay conditions).

B1: CYP75A31 (Solanum lycopersicum) (protein)
chain: MALRINELFVAAIIYIIVHIIISKLITTVRERGRRLPLPPGPTGWPVIGALPLLGSMPHVALAKMAKKYGPIMYLKVGTCGMVVASTPNAAKAFLKTLDINFSNRPPNAGATHLAYNAQDMVFAPYGPRWKLLRKLSNLHMLGGKALENWANVRANELGHMLKSMFDASQDGECVVIADVLTFAMANMIGQVMLSKRVFVEKGVEVNEFKNMVVELMTVAGYFNIGDFIPKLAWMDIQGIEKGMKNLHKKFDDLLTKMFDEHEATSNERKENPDFLDVVMANRDNSEGERLSTTNIKALLLNLFTAGTDTSSSVIEWALAEMMKNPKIFKKAQQEMDQVIGKNRRLIESDIPNLPYLRAICKETFRKHPSTPLNLPRVSSEPCTVDGYYIPKNTRLSVNIWAIGRDPDVWENPLEFTPERFLSGKNAKIEPRGNDFELIPFGAGRRICAGTRMGIVVVEYILGTLVHSFDWKLPNNVIDINMEESFGLALQKAVPLEAMVTPRLSLDVYRC
Take B1: the Michaelis constant (Km) (ATR1 reductase) was 1.20 µM.

B2: CYP75A8 (Catharanthus roseus) (protein)
chain: MALEKLVLFDFLAAISILILVQKFIQIVFLRSSSRIRLPPGPKGWPIIGALPYLGTMPHSILANMAKKYGPIMYLKLGTNGMVVASTPDAVKAFLRTLDMNFSNRPIDAGATHLAYNAQDMVFAHYGPKWKLLRKLSNLHMLGGKALENWSNVRATELGYMLQAMYESSRKGETVVVPEMLTYAMANMIGQVILSRRVFVTKSLESNEFKDMVVELMTTAGYFNIGDFIPSIAWMDLQGIERGMKRLHKKFDALLTKMLEEHKSSSHKRKEKPDFLDYVLANRDNSEGERLTTTNIKALLLNLFTAGTDTSSSVIEWAISEMLKNPTILKRAQEEMDQVIGRNRRLMESDIPKLPYLQAICKETFRKHPSTPLNLPRIAQKDCQVNGYYIPKGTRLSVNIWAIGRDPNVWENPLEFNPDRFLSGKMAKIEPRGNDFELIPFGAGRRICAGTRMGIVLVEYILGTLVHSFDWKLPFDDINELNMDESFGLALQKAVPLVAMVSPRLPINAYSP
As for B2, for the setting “ATR1 reductase yeast expression system, assay conditions not separately printed”, the Michaelis-Menten constant (Km) was found to be 0.83 µM.

The values are drawn from article PMC2825239.
